From patent publication US20090299044A1 (priority 2006, published 2009)
Entries after “also recorded” stand apart in the source; their conditions may differ. Read-outs that look alike come from different tables or passages of the source. Bridge positions count the residues as written; N and C are the ends. Peptide text beside a SMILES is read from it.

Legend:
[1] = biological target: human Kv1.1 voltage-gated potassium channel (human) (UniProt Q09470); assay: cell-based or functional assay
[2] = biological target: human Kv1.3 voltage-gated potassium channel (human) (UniProt P22001); assay: cell-based or functional assay
human Kv1.3 channel [3] = biological target: T1, human Kv1.3 channel (Homo sapiens, UniProt P22001); assay: cell-based or functional assay
human Kv1.1 [4] = biological target: T2, human Kv1.1 (Homo sapiens, UniProt Q09470); assay: cell-based or functional assay
human Kv1.3 channel [5] = biological target: T1, human Kv1.3 channel; assay: cell-based; type: cell-based
human Kv1.3 (CHO) = biological target: T3, human Kv1.3 (CHO) (Homo sapiens, UniProt P22001); assay: cell-based
T3 construct: expressed in transfected cells; host or cells: CHO

human Kv1.1 (HEK293) = biological target: T4, human Kv1.1 (HEK293) (Homo sapiens, UniProt Q09470); assay: cell-based
T4 construct: expressed in transfected cells; host or cells: HEK293

human Kv1.1 [6] = biological target: T2, human Kv1.1; assay: cell-based; design: expressed in transfected cells; host or cells: HEK293
[7] = system: IL-2 production, human whole blood; type: cell-based
[8] = system: IFN-g production, human whole blood; type: cell-based
[9] = system: CD40L on CD4+ T cells, human whole blood; type: cell-based
[10] = system: IL-2R on CD4+ T cells, human whole blood; type: cell-based
human Kv1.1 [11] = biological target: T2, human Kv1.1; assay: cell-based; design: expressed in transfected cells; host or cells: HEK293; details: IC50 on HEK/Kv1.1
[12] = rat, in vivo, iv, 1 mg/kg
[13] = cited from earlier work

T1 sequence (P22001 whole entry): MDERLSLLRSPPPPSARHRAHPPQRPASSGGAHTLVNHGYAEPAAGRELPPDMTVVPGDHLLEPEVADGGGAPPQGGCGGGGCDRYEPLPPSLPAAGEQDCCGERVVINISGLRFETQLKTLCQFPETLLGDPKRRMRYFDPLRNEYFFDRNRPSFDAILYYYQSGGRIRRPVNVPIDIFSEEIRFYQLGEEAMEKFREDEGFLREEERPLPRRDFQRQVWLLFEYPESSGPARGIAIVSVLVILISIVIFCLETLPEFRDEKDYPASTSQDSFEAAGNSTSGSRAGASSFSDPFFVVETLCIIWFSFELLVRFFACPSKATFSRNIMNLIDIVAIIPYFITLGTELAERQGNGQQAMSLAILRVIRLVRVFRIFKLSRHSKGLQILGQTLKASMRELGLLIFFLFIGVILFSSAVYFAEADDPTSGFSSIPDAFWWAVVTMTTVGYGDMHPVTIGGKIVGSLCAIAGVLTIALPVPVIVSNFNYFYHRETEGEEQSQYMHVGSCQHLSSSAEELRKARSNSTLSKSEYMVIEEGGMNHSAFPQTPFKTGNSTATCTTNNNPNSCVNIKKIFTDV
Chain of human Kv1.3 voltage-gated potassium channel (human) (P22001 whole entry): as above
T2 sequence (Q09470 whole entry): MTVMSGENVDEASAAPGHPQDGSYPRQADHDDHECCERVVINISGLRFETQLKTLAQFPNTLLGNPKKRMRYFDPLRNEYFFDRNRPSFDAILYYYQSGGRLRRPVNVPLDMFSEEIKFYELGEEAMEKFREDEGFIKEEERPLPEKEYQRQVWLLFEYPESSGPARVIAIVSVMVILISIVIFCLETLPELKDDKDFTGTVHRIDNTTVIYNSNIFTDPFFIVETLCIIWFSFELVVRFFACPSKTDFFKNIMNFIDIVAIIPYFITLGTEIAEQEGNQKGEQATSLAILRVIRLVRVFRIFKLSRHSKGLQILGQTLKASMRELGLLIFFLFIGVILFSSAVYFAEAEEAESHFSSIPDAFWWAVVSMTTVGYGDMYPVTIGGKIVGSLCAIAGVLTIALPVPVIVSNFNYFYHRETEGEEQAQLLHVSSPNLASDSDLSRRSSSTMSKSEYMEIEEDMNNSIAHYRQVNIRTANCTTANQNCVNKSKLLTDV
T3 sequence (P22001 whole entry): as the sequence (P22001 whole entry) above
T4 sequence (Q09470 whole entry): as the sequence (Q09470 whole entry) above
Chain of human Kv1.1 voltage-gated potassium channel (human) (Q09470 whole entry): as above

Molecule: OSK1 (native Orthochirus scrobiculosus toxin peptide)
- Kv1.1 (IC50, pM), whole cell patch clamp ePhys [1]: 202 pM
- Kv1.3 (IC50, pM), whole cell patch clamp ePhys [2]: 39 pM
- Kv1.3 Selectivity (=Kv1.1/Kv.3 IC50) [2]: 5

Molecule: E. coli-derived Shk[1-35]-L-Fc (Fc fusion)
- Kv1.3 IC50 by IWQ (IonWorks planar patch clamp, CHO/Kv1.3 cells) (human Kv1.3 channel [3]): 2.4 nM

Molecule: Fc-L10-OSK1 (CHO-expressed) (Fc fusion)
- hKv1.1: IC50 (whole cell patch clamp, block of K+ current) (human Kv1.1 [4]): 41.6 nM

Molecule: CC[C@H](C)[C@@H]1NC(=O)[C@H](CCCCN)NC(=O)[C@@H](NC(=O)[C@H](CCCCN)NC(=O)[C@@H](NC(=O)[C@H](CC(N)=O)NC(=O)[C@@H](NC(=O)[C@@H](NC(=O)[C@@H](NC(=O)CN)C(C)C)[C@@H](C)CC)[C@@H](C)CC)C(C)C)CSSC[C@@H]2NC(=O)[C@H](C)NC(=O)CNC(=O)[C@H](Cc3ccccc3)NC(=O)[C@H](CCCNC(=N)N)NC(=O)[C@H](CCSC)NC(=O)CNC(=O)[C@H](C)NC(=O)[C@H](CCCCN)NC(=O)[C@H](CCCCN)NC(=O)[C@@H]3CSSC[C@@H](C(=O)N[C@H](C(=O)N4CCC[C@H]4C(=O)N[C@@H](CCCCN)C(=O)O)[C@@H](C)O)NC(=O)[C@H](Cc4c[nH]cn4)NC(=O)[C@H](CSSC[C@H](NC(=O)[C@H](CCC(N)=O)NC(=O)[C@H](CCCNC(=N)N)NC(=O)[C@H](CO)NC1=O)C(=O)N[C@@H](CC(C)C)C(=O)N[C@@H](CCC(=O)O)C(=O)N1CCC[C@H]1C(=O)N3)NC(=O)[C@H](CCCCN)NC(=O)CNC(=O)[C@H](CC(N)=O)NC(=O)[C@H](CCSC)NC2=O [K27A] (H-GVIINVKCKISRQCLEPCKKAGMRFGACMNGKCHCTPK-OH; disulfide 8-28, 14-33, 18-35)
- IC50 (human Kv1.3 channel [5]): 0.289 nM
- IC50 (human Kv1.3 (CHO)): 0.232 nM
- IC50 (human Kv1.1 (HEK293)): > 3 nM
- IC50 (human Kv1.1 [6]): 10.1 nM

Molecule: CC[C@H](C)[C@@H]1NC(=O)[C@H](CCCCN)NC(=O)[C@@H](NC(=O)[C@H](CCCCN)NC(=O)[C@@H](NC(=O)[C@H](CC(N)=O)NC(=O)[C@@H](NC(=O)[C@@H](NC(=O)[C@@H](NC(=O)CN)C(C)C)[C@@H](C)CC)[C@@H](C)CC)C(C)C)CSSC[C@@H]2NC(=O)[C@H](CCCCN)NC(=O)CNC(=O)[C@H](Cc3ccccc3)NC(=O)[C@H](CCCNC(=N)N)NC(=O)[C@H](CCSC)NC(=O)CNC(=O)[C@H](C)NC(=O)[C@H](CCCCN)NC(=O)[C@H](CCCCN)NC(=O)[C@@H]3CSSC[C@@H](C(=O)N[C@H](C(=O)N4CCC[C@H]4C(=O)N[C@@H](CCCCN)C(=O)O)[C@@H](C)O)NC(=O)[C@H](Cc4c[nH]cn4)NC(=O)[C@H](CSSC[C@H](NC(=O)[C@H](CCC(N)=O)NC(=O)[C@H](CCCNC(=N)N)NC(=O)[C@H](CCC(=O)O)NC1=O)C(=O)N[C@@H](CC(C)C)C(=O)N[C@@H](CCC(=O)O)C(=O)N1CCC[C@H]1C(=O)N3)NC(=O)[C@H](CCCCN)NC(=O)CNC(=O)[C@H](CC(N)=O)NC(=O)[C@H](CCSC)NC2=O [S11E] (H-GVIINVKCKIERQCLEPCKKAGMRFGKCMNGKCHCTPK-OH; disulfide 8-28, 14-33, 18-35)
- IC50 ([7]; read-out: Analogue Activity (IC50, pM) WB/IL-2): 39900 pM
- IC50 ([8]; read-out: Analogue Activity (IC50, pM) WB/IFNg): 16900 pM

Molecule: IbTx: BKCa channel inhibitor iberiotoxin, Bachem (QFTDVDCSVSKECWSVCKDLFGVDRGKCMGKKCRCYQ; Definition of Artificial Sequence: Synthetic peptide) [reference compound]
- thapsigargin-induced IL-2 production in human whole blood (in words) [7]: no significant activity
- thapsigargin-induced IFN-g production in human whole blood (in words) [8]: no significant activity
- thapsigargin-induced upregulation of CD40L on T cells in human whole blood (in words) [9]: no significant activity
- thapsigargin-induced upregulation of the IL-2R on T cells in human whole blood (in words) [10]: no significant activity

Molecule: CC[C@H](C)[C@@H]1NC(=O)[C@H](CCCCN)NC(=O)[C@@H](NC(=O)[C@H](CCCCN)NC(=O)[C@@H](NC(=O)[C@H](CC(N)=O)NC(=O)[C@@H](NC(=O)[C@@H](NC(=O)[C@@H](NC(=O)CN)C(C)C)[C@@H](C)CC)[C@@H](C)CC)C(C)C)CSSC[C@@H]2NC(=O)[C@H](CCCCN)NC(=O)CNC(=O)[C@H](Cc3ccccc3)NC(=O)[C@H](CCCNC(=N)N)NC(=O)[C@H](CCSC)NC(=O)CNC(=O)[C@H](C)NC(=O)[C@H](CCCCN)NC(=O)[C@H](CCCCN)NC(=O)[C@@H]3CSSC[C@@H](C(=O)N[C@H](C(=O)N4CCC[C@H]4C(=O)N[C@@H](CCCCN)C(=O)O)[C@@H](C)O)NC(=O)[C@H](Cc4c[nH]cn4)NC(=O)[C@H](CSSC[C@H](NC(=O)[C@H](CCC(N)=O)NC(=O)[C@H](CCCNC(=N)N)NC(=O)[C@H](CO)NC1=O)C(=O)N[C@@H](CC(C)C)C(=O)N[C@@H](CCC(=O)O)C(=O)N1CCC[C@H]1C(=O)N3)NC(=O)[C@H](CCCCN)NC(=O)CNC(=O)[C@H](CC(N)=O)NC(=O)[C@H](C)NC2=O [OSK1[Ala-29]] (H-GVIINVKCKISRQCLEPCKKAGMRFGKCANGKCHCTPK-OH; disulfide 8-28, 14-33, 18-35)
- potency relative to cyclosporin A in blocking the cytokine response in human whole blood (in words) [7]: several orders of magnitude more potent
- IC50 (human Kv1.1 [11]): 2.7 nM

Molecule: Fc-L10-ShK[2-35]: human IgG1 Fc fused via 10 amino acid linker to ShK[2-35], CHO-derived peptibody
- block of human Kv1.3 current (in words) (human Kv1.3 channel [5]): potently blocks
- thapsigargin-induced IL-2 production in human whole blood (in words) [7]: potently blocked IL-2 secretion in human whole blood; also recorded: suppressed
- thapsigargin-induced IFN-g production in human whole blood (in words) [8]: suppressed; also recorded: blocked
- thapsigargin-induced upregulation of CD40L on T cells in human whole blood (in words) [9]: blocked
- thapsigargin-induced upregulation of the IL-2R on T cells in human whole blood (in words) [10]: suppressing activation of the IL-2R on CD4+ T cells; also recorded: blocked

Molecule: E. coli-derived Fc-L-ShK[1-35] (Fc fusion)
- Kv1.3 IC50 by WCVC (whole cell patch clamp, HEK293/Kv1.3 cells) (human Kv1.3 channel [3]): 1.4 nM

Molecule: CC[C@H](C)[C@@H]1NC(=O)[C@@H](NC(=O)[C@H](CO)NC(=O)[C@@H](N)CCCNC(=N)N)CSSC[C@@H](C(=O)O)NC(=O)[C@H]([C@@H](C)O)NC(=O)CNC(=O)[C@@H]2CSSC[C@@H]3NC(=O)[C@H](CCC(N)=O)NC(=O)[C@H](Cc4ccccc4)NC(=O)[C@H](C)NC(=O)[C@H]([C@@H](C)O)NC(=O)[C@H](CSSC[C@H](NC(=O)[C@H](Cc4ccccc4)NC(=O)[C@H](CO)NC(=O)[C@H](CC(C)C)NC(=O)[C@H](CCCNC(=N)N)NC(=O)[C@H](Cc4ccc(O)cc4)NC(=O)[C@H](CCCCN)NC(=O)[C@H](CCSC)NC(=O)[C@H](CO)NC(=O)[C@H](Cc4cnc[nH]4)NC(=O)[C@H](CCCCN)NC3=O)C(=O)N[C@@H](CCCNC(=N)N)C(=O)N[C@@H](CCCCN)C(=O)N[C@@H]([C@@H](C)O)C(=O)N2)NC(=O)[C@H](CCCNC(=N)N)NC(=O)[C@H](CO)NC(=O)[C@H](CCCCN)NC(=O)[C@@H]2CCCN2C(=O)[C@H]([C@@H](C)CC)NC(=O)[C@H]([C@@H](C)O)NC(=O)[C@H](CC(=O)O)NC1=O [ShK[1-35]]
- duration of significant suppression of Kv1.3 current (<70 POC) by 5% serum Test solutions [12]: ≤ 1 h
- half-life in vivo [13]: ~20 min
- half-life of the native ShK molecule ([13]; in vivo): approximately 0.33 hour

Molecule: OSK1 analogue E16K, K20D (peptide)
- WB/IFNg (IC50, nM), human whole blood [2]: 1.32 nM
- WB/IL-2 (IC50, nM), human whole blood [2]: 1.58 nM

Molecule: Fc-L25-ShK[2-35] (CHO-derived) (Fc fusion)
- IC50 of current block, whole cell patch clamp on HEK293/Kv1.3 cells (human Kv1.3 channel [3]): 0.15 nM

Molecule: E. coli-derived Fc-L-OSK1 (Fc fusion)
- Kv1.3 IC50 by WCVC (whole cell patch clamp, HEK293/Kv1.3 cells) (human Kv1.3 channel [3]): 3.2 nM

Molecule: E. coli-derived ShK[2-35]-L-Fc (Fc fusion)
- Kv1.3 IC50 by IWQ (IonWorks planar patch clamp, CHO/Kv1.3 cells) (human Kv1.3 channel [3]): 4.9 nM

Molecule: E. coli-derived Fc-L-ShK[2-35] (Fc fusion)
- Kv1.3 IC50 by IWQ (IonWorks planar patch clamp, CHO/Kv1.3 cells) (human Kv1.3 channel [3]): 2.8 nM
- Kv1.3 IC50 by WCVC (whole cell patch clamp, HEK293/Kv1.3 cells) (human Kv1.3 channel [3]): 1.3 nM

Molecule: Synthetic OSK1 toxin peptide
- hKv1.1: IC50 (whole cell patch clamp, block of K+ current) (human Kv1.1 [4]): 0.16 nM
- hKv1.3: IC50 (whole cell patch clamp, block of K+ current) (human Kv1.3 channel [3]): 0.039 nM

B1: MGGHHHHHHGGGPSVFLFPPKPKDTLMISRTPEVTCVVVDVSHEDPEVKFNWYVDGVEVHNAKTKPREEQYNSTYRVVSVLTVLHQDWLNGKEYKCKVSNKALPAPIEKTISGGGGSGGGGSGVIINVKCKISRQCLEPCKKAGMRFGKCMNGKCHCTPK (protein)
chain: MGGHHHHHHGGGPSVFLFPPKPKDTLMISRTPEVTCVVVDVSHEDPEVKFNWYVDGVEVHNAKTKPREEQYNSTYRVVSVLTVLHQDWLNGKEYKCKVSNKALPAPIEKTISGGGGSGGGGSGVIINVKCKISRQCLEPCKKAGMRFGKCMNGKCHCTPK
- blockade of the whole blood cytokine response (IL-2 and IFNg), in words [7]: active in blocking inflammation; also recorded: modest blockade
- IC50 ([7]; read-out: WB/IL-2 (IC50)): 38500 pM
- IC50 ([8]; read-out: WB/IFNg (IC50)): 55200 pM
